Assay results: FireProtDB (doi:10.1016/j.bbapap.2007.04.008)
“And” between values parts separate entries of the source, which are not always exact repeats. Equal values may be shown once.

Settings: Brassica napus, pH 7, 27 °C, GdnHCl, phosphate 0.02 M, transition: 3, reversible: Yes, whole UniProt chain shown

B1: Napin-1A wild type, P24565 (protein)
chain: QPQKCQREFQQEQHLRACQQWIRQQLAGSPFQSGPQEGPWLREQCCNELYQEDQVCVCPTLKQAAKSVRVQGQHGPFQSTRIYQIAKNLPNVCNMKQIGTCPFIAIPFFP
denaturant m value (CD): 1.8 kcal/mol/M and 1.2 kcal/mol/M
unfolding free energy (CD): 5.2 kcal/mol and 5.1 kcal/mol
denaturant m value (Fluorescence): 1.6 kcal/mol/M and 1.3 kcal/mol/M
unfolding free energy (Fluorescence): 5.2 kcal/mol and 5.1 kcal/mol
